Experimental data reported in the supplement of paper PMC10567573.

B1: PPEF2 (parent)
chain: AFKAAALIQRWYRRYVARLEMRRR
B2: CLINT1 (parent)
chain: VVTSAREHIYDLRSLENYHFVDEH

Variants of: B1
Assay: protein stability index of a GFP-peptide fusion (GPS, HEK-293T) (PSI 1-6); higher = more stable
Settings: c terminus: a fixed tail appended
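Note: lentivirally expressed fusions sorted by FACS into six bins by GFP to DsRed ratio, PSI derived from sequencing read proportions per bin multiplied by bin number.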

Protein stability index, by site and new letter:
E20: V 2.32; N 4.16; Q 4.2; Y 3.25; D 3.02; I 2.63; M 2.39; W 4.21; H 3.46; P 3.41; S 3.65; G 3.31; T 2.65; L 2.69; F 3.06
L19: K 4.7; I 3.64; V 3.42; T 4.63; F 2.45; S 4.1; W 2.13; C 2.48; Q 3.87; N 3.12; P 3.63; Y 2.03; H 3.33
M21: T 3.06; P 2.18; S 2.11; C 3.34; N 3.3; L 3.39; Y 3.42; A 2.44; H 3.83; Q 4.15; K 2.69; R 2.36; F 3.32; D 2.98; I 3.54; V 3.7; E 4.73
V16: L 4; T 3.53; N 3.02; A 3.94; C 3.05; K 4.73; E 2.13; S 4.23; R 5.4; P 1.92; I 3.94; H 3.66; F 3.25; W 2.32; M 4.45; Y 2.96
R23: K 3.58; Y 1.58; I 2.13; W 1.98; T 2.25; E 2.44; S 1.65; M 1.94; L 2.48; G 2.61; C 3.14; A 2.81; H 2.26; P 2.36
R22: N 3.83; D 2.24; C 2.01; T 3.82; W 2.52; L 3.12; P 1.52; F 2.32; Q 2.74; M 1.75; Y 2.42; S 2.68; I 1.89; V 1.66
Y15: T 4.46; Q 4.44; F 3.39; W 3.61; D 1.87; G 1.93; P 1.89; V 4.4; N 5.1; R 4.11; M 5.14; C 4.6; L 3.82; E 3.89; H 4.56; A 4.61
W11: D 2.79; S 4.12; E 2.46; L 3.79; N 4.17; Y 3.91; P 2.62; G 2.55; Q 2.57; M 2.84; F 3.99; I 2.81; H 2.28; A 4.29; K 5.21
Y12: K 1.78; F 3.17; P 2.44; A 2.35; C 2.14; G 1.49; H 2.29; R 1.15; N 1.62; V 2.07; M 2.95; T 2.17; I 2.53; E 3.14
R14: F 2.29; M 2.2; N 2.83; D 1.66; E 2.32; V 1.07; Y 1.79; H 2.42; P 1.59; I 1.84; K 3; Q 2.74; A 2.17; L 1.84; T 2.49
R18: D 1.66; F 3.27; K 2.54; G 1.95; W 2.77; A 2.12; Y 3.1; I 2.06; T 2.41; M 1.45; C 2.25; P 2.09; E 1.96; N 2.71
A17: W 2.66; V 3.84; H 2.63; Q 3.62; I 2.96; N 3.84; S 3.2; P 2.09; K 3.57; T 3.34; D 2.33; Y 2.76; E 3.13; L 3.75; F 2.6; R 3.67; G 3.96; C 2.53
R24: E 3; W 1.99; G 3.09; P 2.39; C 1.97; H 3.78; K 2.75; T 2.48; L 2.9; Q 3.32; Y 2.87; V 2.34; A 3.72; F 1.81; S 2.63; N 3.62; M 2.45
Q9: R 3.48; K 3.59; D 1.86; I 2.27; W 2.98; E 1.59; F 2.85; M 2.37; L 3.44; Y 2.23; T 3.39; S 2.54; V 2.99; H 2.16; N 2.1
R10: H 2.51; F 2.88; L 1.71; D 1.67; N 3.6; T 2.1; A 2.4; G 1.88; S 2.27
R13: I 2.53; L 2.05; E 1.95; T 1.8; N 1.15; M 1.93; P 1.23; K 2.22; H 2.16; A 1.62; F 2.06; Q 2.26

Variants of: B2
Assay: as above
Settings: c terminus: a fixed tail appended

Protein stability index of substitutions, site by site:
T3: Y 2.24; V 2.07; N 2.8; R 3.09; Q 3.25; L 2.32; M 2.1; P 2.99; C 2.29; K 3.11; H 2.48; E 3.84; A 2.62; S 2.89; F 1.98; D 3.52; I 2.04; W 2.31; G 3.78
V1: S 3.68; G 3.67; A 3.89; W 2.47; L 2.62; Y 1.5; M 2.88; T 3.63; P 3.5; R 2.92; F 1.79; I 2.67; E 3.96; Q 3.5; K 3.45; C 2.54; D 4.06; N 3.8; H 3.35
A5: Y 2.24; E 3.81; W 2.16; V 2.24; S 3.15; P 3.35; H 2.83; D 3.53; C 2.08; G 3.15; N 2.92; R 2.67; T 2.98; Q 3.71; M 2.57; I 3.23; L 1.97; F 2.53; K 2.36
V2: H 3.44; Y 2.67; Q 3.53; P 4.19; C 2.9; A 3.34; G 3.34; L 3.23; N 3.62; K 3.01; E 3.67; T 3.24; D 4.26; I 2.3; F 2.56; W 2.38; M 3.2; R 3.13; S 3.12
S4: V 2.47; G 2.73; P 3.4; D 3.82; K 2.52; W 2.48; H 2.82; F 2.03; R 2.65; Y 1.48; M 2.24; L 1.95; I 2.1; A 2.41; C 1.64; N 2.84; Q 2.91; E 3.04; T 3.18
R6: C 2.91; F 1.55; E 3.87; A 2.45; D 3.63
